The values that follow come from PMC5344419, “The structure of FKBP38 in complex with the MEEVD tetratricopeptide binding-motif of Hsp90” (PLoS ONE, 2017).

This data set concerns yeast Hsp90. Briefly: ATPase activity of yeast Hsp90. It is filed as biochemical. The settings on record: ATPase assay, 5-molar excess of FKBP^92-380 over Hsp90 (Fig 7).

Entries after “also recorded” stand apart in the source; their conditions may differ.

B1: FKBP^92-380: fragment containing both the immunophilin and TPR domain (protein)
chain: EWLDILGNGLLRKKTLVPGPPGSSRPVKGQVVTVHLQTSLENGTRVQEEPELVFTLGDCDVIQALDLSVPLMDVGETAMVTADSKYCYGPQGRSPYIPPHAALCLEVTLKTAVDGPDLEMLTGQERVALANRKRECGNAHYQRADFVLAANSYDLAIKAITSSAKVDMTFEEEAQLLQLKVKCLNNLAASQLKLDHYRAALRSCSLVLEHQPDNIKALFRKGKVLAQQGEYSEAIPILRAALKLEPSNKTIHAELSKLVKKHAAQRSTETALYRKMLGNPSRLPAKCPG
modifications: left off: His6 (from the vector pDMXV4), C-terminal, kept
notes: fragment containing both the immunophilin and TPR domain
In the case of B1, the “effect on ATPase activity of Hsp90” value is on record as “did not substantially alter”.

B2: FKBP8: immunophilin with N-terminal glutamate rich region, PPIase domain and tetratricopeptide domain; construct not specified at the place (protein)
chain: MASCAEPSEPSAPLPAGVPPLEDFEVLDGVEDAEGEEEEEEEEEEEDDLSELPPLEDMGQPPAEEAEQPGALAREFLAAMEPEPAPAPAPEEWLDILGNGLLRKKTLVPGPPGSSRPVKGQVVTVHLQTSLENGTRVQEEPELVFTLGDCDVIQALDLSVPLMDVGETAMVTADSKYCYGPQGRSPYIPPHAALCLEVTLKTAVDGPDLEMLTGQERVALANRKRECGNAHYQRADFVLAANSYDLAIKAITSSAKVDMTFEEEAQLLQLKVKCLNNLAASQLKLDHYRAALRSCSLVLEHQPDNIKALFRKGKVLAQQGEYSEAIPILRAALKLEPSNKTIHAELSKLVKKHAAQRSTETALYRKMLGNPSRLPAKCPG
modifications: left off: His6, C-terminal, kept
notes: immunophilin with N-terminal glutamate rich region, PPIase domain and tetratricopeptide domain; construct not specified at the place
As for B2, the “effect on ATPase activity of Hsp90” value is given as “did not substantially influence; also recorded: did not show any substantial effect”.
